Where “and” joins values, the source holds several entries; their conditions need not be identical. Equal entries are not always repeated. Where a SMILES comes first, the peptide text is derived from it. Bridges are numbered along the chain shown (N, C = ends). Where no end group is shown, it is not given here. Side-chain parts run from the residue outwards. [ ]: non-standard residue; d: D form. Orn = NCCC[C@H](N)C(=O)O; Dap = NC[C@H](N)C(=O)O
Columns and labels:
human ADO = biological target: T1, human ADO (Homo sapiens, UniProt Q96SZ5); assay: SPR single-cycle kinetic (SCK) binding of cyclic peptides to ADO; details: for KD: Supplementary Fig. 4 series
T1 construct: Full-length human ADO (Uniprot ID: Q96SZ5) was cloned; made in house; host or cells: E. coli Rosetta2(DE3)
T1 sequence (Q96SZ5 1-270): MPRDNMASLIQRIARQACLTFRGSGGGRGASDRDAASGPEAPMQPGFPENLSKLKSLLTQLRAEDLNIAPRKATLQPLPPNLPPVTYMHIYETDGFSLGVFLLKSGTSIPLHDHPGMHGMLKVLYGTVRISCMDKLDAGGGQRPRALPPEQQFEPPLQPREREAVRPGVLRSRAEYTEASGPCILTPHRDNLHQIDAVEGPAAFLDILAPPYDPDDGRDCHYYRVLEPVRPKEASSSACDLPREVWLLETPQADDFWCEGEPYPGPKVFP
Excerpt: After six cycles, clear enrichment of several CPs was observed by next-generation sequencing. The most enriched CPs (CP1-8, numbered according to their percentage enrichment in the final selection round) were selected for subsequent analysis (Table 1). CP1, 5, 6 and 7 are related in sequence, while CP2, 3, 4, and 8 are unique compositions (Fig. 1b). These CPs were subsequently produced by solid-phase peptide synthesis (SPPS) and analysed by surface plasmon resonance (SPR) using single cycle kinetic (SCK) analysis to confirm and quantify binding to ADO. ADO could interact with each CP to varying degrees (Supplementary Fig. 4, Table 1, Fig. 1dleft).
SPR measurements were made using a Biacore T200 (Cytiva) instrument and data were analysed using the Biacore Insight Evaluation Software. Biotinylated-ADO was immobilised on a Biotin CAP chip (Cytiva) with a target density of ∼2500–3000 RU and peptide/protein substrates were injected over the chip. Experiments were conducted at 4 °C using both multi-cycle (fit using the equilibrium steady state affinity 1:1 binding model) and single-cycle kinetics mode (fit using a 1:1 binding model). A buffer comprising 20 mM HEPES pH 7.5, 500 mM NaCl, 10 mM DTT, and 0.1% (v/v) tween-20 was used as the running buffer at a flow rate of 50 μL/minute.

[1] = biological target: T2, 2-aminoethanethiol dioxygenase (ADO), full-length human, N-terminally His-tagged and biotinylated … (human, UniProt Q96SZ5 1-270, biotin (biotinylated during expression, 0.2 mM biotin added)); assay: SPR; single cycle kinetic (SCK) analysis, 1:1 binding model; biotinylated ADO immobilised on a Biotin CAP chip (~2500-3000 RU), cyclic peptides injected; 4 °C; 20 mM HEPES pH 7.5, 500 mM NaCl, 10 mM DTT, 0.1% tween-20; 50 μL/minute; details: both partners purified
T2 construct: 2-aminoethanethiol dioxygenase (ADO), human, UniProt Q96SZ5, full length; Construct used for RaPID screening and all SPR experiments; No tag cleavage step is described in its purification; also called wild type ADO; biotinylated ADO; source: E. coli Rosetta2(DE3), purified (Ni-NTA, SEC); not shown: biotinylation tag (from the vector pQE80L-Navi), N-terminal, kept
T2 sequence (looked up): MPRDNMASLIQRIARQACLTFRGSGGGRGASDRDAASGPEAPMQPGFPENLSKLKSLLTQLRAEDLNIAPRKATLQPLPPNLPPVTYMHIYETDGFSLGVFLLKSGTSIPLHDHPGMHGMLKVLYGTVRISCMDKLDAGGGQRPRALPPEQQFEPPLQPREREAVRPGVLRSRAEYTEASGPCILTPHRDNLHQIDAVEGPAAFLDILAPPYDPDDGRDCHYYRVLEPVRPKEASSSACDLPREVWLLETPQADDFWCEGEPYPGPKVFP

[2] = biological target: T2, 2-aminoethanethiol dioxygenase (ADO), …; assay: cell-based or functional assay
[3] = biological target: T3, 2-aminoethanethiol dioxygenase (ADO), full-length human, N-terminally His-tagged and biotinylated … (human, UniProt Q96SZ5 1-270, biotin (biotinylated during expression, 0.2 mM biotin added)); assay: SPR; single-cycle kinetics (1:1 binding model); biotinylated ADO immobilised on a Biotin CAP chip (~2500-3000 RU), cyclic peptide injected; Biacore T200, 4 °C; 20 mM HEPES pH 7.5, 500 mM NaCl, 10 mM DTT, 0.1% tween-20; 50 µL/minute; each cell is one of three independent measurements; details: both partners purified
T3 construct: 2-aminoethanethiol dioxygenase (ADO), human, UniProt Q96SZ5, full length; Immobilised through its biotin on a Biotin CAP chip for SPR; also called wild type ADO; Biotinylated-ADO; source: E. coli Rosetta2(DE3), purified (Ni-NTA, SEC); not shown: biotinylation tag (from the vector pQE80L-Navi), N-terminal, kept
T3 sequence (looked up): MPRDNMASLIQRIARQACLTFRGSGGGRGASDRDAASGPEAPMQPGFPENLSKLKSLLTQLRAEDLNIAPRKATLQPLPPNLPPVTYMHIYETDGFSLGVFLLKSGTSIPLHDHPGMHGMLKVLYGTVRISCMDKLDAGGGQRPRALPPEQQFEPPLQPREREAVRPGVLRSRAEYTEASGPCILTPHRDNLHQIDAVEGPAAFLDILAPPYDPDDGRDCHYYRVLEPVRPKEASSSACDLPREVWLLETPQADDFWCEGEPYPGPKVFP
Procedure, shortened: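 Full-length human ADO carrying a His tag and a biotin label was produced in E. coli and purified first by nickel affinity, then by gel filtration. The protein was loaded onto a Biotin CAP chip in a Biacore T200 to roughly 2500–3000 RU, after which cyclic peptides were passed across the surface at 50 µL/minute and 4 °C in HEPES pH 7.5 buffer containing 500 mM NaCl, DTT and tween-20. Each Kd was obtained by fitting single-cycle kinetic sensorgrams to a 1:1 binding model, based on three independent measurements.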

[4] = Fig. 3c series, geometric mean of a minimum of three independent measurements (n = 3)
[5] = 1:1 binding model, 4 °C, geometric mean of a minimum of three independent measurements (n = 3) with standard error

## CC(C)C[C@@H]1NC(=O)[C@H](CCCNC(=N)N)NC(=O)CNC(=O)[C@H](CCCNC(=N)N)NC(=O)[C@H](CCCNC(=N)N)NC(=O)[C@@H]2CCCN2C(=O)[C@H](Cc2ccccc2)NC(=O)CNC(=O)[C@H](CCC(=O)O)NC(=O)[C@H](CC(N)=O)NC(=O)[C@H](CC(C)C)NC(=O)[C@H]([C@@H](C)O)NC(=O)[C@H](Cc2c[nH]c3ccccc23)NC(=O)[C@H](Cc2ccc(O)cc2)NC(=O)CSC[C@@H](C(N)=O)NC1=O [CP3] ({CH2CO}-YWTLNEGFPRRGRLC-NH2; thioether N-15; N-terminus and C-terminus assumed)
Human ADO; replicate 1
  KD: 13500 nM
Human ADO; replicate 2
  KD: 5000 nM
Human ADO; replicate 3
  KD: 6630 nM

## CC[C@H](C)[C@@H]1NC(=O)[C@H](Cc2ccc(O)cc2)NC(=O)CSC[C@@H](C(N)=O)NC(=O)[C@H](CCC(N)=O)NC(=O)[C@H](CCCNC(=N)N)NC(=O)[C@H](Cc2c[nH]cn2)NC(=O)[C@H](CO)NC(=O)CNC(=O)[C@H](CCCCNC(=O)[C@@H](N)CS)NC(=O)[C@H](Cc2c[nH]c3ccccc23)NC(=O)[C@H](Cc2ccccc2)NC(=O)[C@H]([C@@H](C)O)NC(=O)[C@H](CCCCN)NC(=O)[C@H](C(C)C)NC1=O [CP6-L8K-Cys] ({CH2CO}-YIVKTFWK(Cys)GSHRQC-NH2; thioether N-14)
Human ADO; Fig. 3c / Supplementary Fig. 15 series, replicate 3
  Kd: 13.6 nM

## CC[C@H](C)[C@@H]1NC(=O)[C@H](Cc2ccc(O)cc2)NC(=O)CSC[C@@H](C(N)=O)NC(=O)[C@H](CCC(N)=O)NC(=O)[C@H](CCCNC(=N)N)NC(=O)[C@H](Cc2c[nH]cn2)NC(=O)[C@H](CO)NC(=O)CNC(=O)[C@H](CCCCNC(=O)[C@@H](N)CO)NC(=O)[C@H](Cc2c[nH]c3ccccc23)NC(=O)[C@H](Cc2ccccc2)NC(=O)[C@H]([C@@H](C)O)NC(=O)[C@H](CCCCN)NC(=O)[C@H](C(C)C)NC1=O [CP6-L8K-Ser] ({CH2CO}-YIVKTFWK(Ser)GSHRQC-NH2; thioether N-14)
Human ADO; [4]
  Kd: 21 ± 4.9 nM

## CC(C)C[C@@H]1NC(=O)[C@H](Cc2c[nH]c3ccccc23)NC(=O)[C@H]([C@@H](C)O)NC(=O)[C@H]([C@@H](C)O)NC(=O)[C@H](CO)NC(=O)[C@H](C(C)C)NC(=O)[C@H]([C@@H](C)O)NC(=O)[C@H](Cc2ccc(O)cc2)NC(=O)CSC[C@@H](C(N)=O)NC(=O)[C@H](CCC(N)=O)NC(=O)[C@H](CCCNC(=N)N)NC(=O)[C@H](Cc2c[nH]cn2)NC(=O)[C@H]([C@@H](C)O)NC(=O)CNC1=O [CP1] ({CH2CO}-YTVSTTWLGTHRQC-NH2; thioether N-14)
Human ADO; [5]
  Kd: 35.4 ± 2.11 nM

## CC[C@H](C)[C@@H]1NC(=O)[C@H](Cc2ccc(O)cc2)NC(=O)CSC[C@@H](C(N)=O)NC(=O)[C@H](CCC(N)=O)NC(=O)[C@H](CCCNC(=N)N)NC(=O)[C@H](Cc2c[nH]cn2)NC(=O)[C@H](CO)NC(=O)CNC(=O)[C@H](CCCNC(=O)[C@@H](N)CO)NC(=O)[C@H](Cc2c[nH]c3ccccc23)NC(=O)[C@H](Cc2ccccc2)NC(=O)[C@H]([C@@H](C)O)NC(=O)[C@H](CCCCN)NC(=O)[C@H](C(C)C)NC1=O [CP6-L8O-Ser] ({CH2CO}-YIVKTFW[Orn](Ser)GSHRQC-NH2; thioether N-14)
Human ADO; [4]
  Kd: 140 ± 120 nM

## CC[C@H](C)[C@@H]1NC(=O)[C@H](Cc2ccc(O)cc2)NC(=O)CSC[C@@H](C(N)=O)NC(=O)[C@H](CCC(N)=O)NC(=O)[C@H](CCCNC(=N)N)NC(=O)[C@H](Cc2c[nH]cn2)NC(=O)[C@H](CO)NC(=O)CNC(=O)[C@H](CC(C)C)NC(=O)[C@H](Cc2c[nH]c3ccccc23)NC(=O)[C@H](Cc2ccccc2)NC(=O)[C@H]([C@@H](C)O)NC(=O)[C@H](CCCCN)NC(=O)[C@H](C(C)C)NC1=O [CP6] ({CH2CO}-YIVKTFWLGSHRQC-NH2; thioether N-14)
Human ADO; [5]
  Kd: 66.2 ± 0.86 nM
Human ADO; [4]
  Kd: 51 ± 0.25 nM

## CC[C@H](C)[C@@H]1NC(=O)[C@H](CCCNC(=N)N)NC(=O)[C@H](Cc2ccc(O)cc2)NC(=O)CSC[C@@H](C(=O)N2CCC[C@H]2C(=O)N[C@@H](CS)C(N)=O)NC(=O)[C@H](CC(C)C)NC(=O)[C@H](C(C)C)NC(=O)[C@H](Cc2c[nH]c3ccccc23)NC(=O)[C@H](CO)NC(=O)[C@H](CCCNC(=N)N)NC(=O)[C@H](Cc2ccccc2)NC(=O)[C@H](C(C)C)NC(=O)[C@H](CCCNC(=N)N)NC(=O)[C@H]([C@@H](C)CC)NC1=O [CP2] ({CH2CO}-YRIIRVFRSWVLCPC-NH2; thioether N-13; N-terminus and C-terminus assumed)
Human ADO; replicate 1
  KD: 6280 nM
Human ADO; replicate 2
  KD: 5190 nM
Human ADO; replicate 3
  KD: 4690 nM

B1: cyclic peptide CP2 (peptide)
peptide: {CH2CO}-YRIIRVFRSWVLCPC
modifications: thioether N-13
notes: cyclic peptide selected against ADO by RaPID mRNA display; source: synthetic peptide (solid-phase peptide synthesis)
[1]
  Kd: > 5000 nM
[2]
  IC50 of inhibition of ADO activity (oxidation of RGS5_(2-15), LCMS): > 50000 nM

B2: CP6-L8d-Lys-Ser (peptide)
chain: {CH2CO}-YIVKTFW[Dap]([Lys-Ser])GSHRQC
modifications: thioether N-14
[3]
  Kd: 461 nM and 530 nM and 472 nM

B3: cyclic peptide CP6 (peptide)
peptide: {CH2CO}-YIVKTFWLGSHRQC-NH2
modifications: thioether N-14
SMILES: CC[C@H](C)[C@@H]1NC(=O)[C@H](Cc2ccc(O)cc2)NC(=O)CSC[C@@H](C(N)=O)NC(=O)[C@H](CCC(N)=O)NC(=O)[C@H](CCCNC(=N)N)NC(=O)[C@H](Cc2c[nH]cn2)NC(=O)[C@H](CO)NC(=O)CNC(=O)[C@H](CC(C)C)NC(=O)[C@H](Cc2c[nH]c3ccccc23)NC(=O)[C@H](Cc2ccccc2)NC(=O)[C@H]([C@@H](C)O)NC(=O)[C@H](CCCCN)NC(=O)[C@H](C(C)C)NC1=O
notes: cyclic peptide selected against ADO by RaPID mRNA display; also called unmodified CP6; source: synthetic peptide (solid-phase peptide synthesis)
[1]
  Kd: 66 nM
[2]
  IC50 of inhibition of ADO activity (oxidation of RGS5_(2-15), LCMS): 950 nM

B4: cyclic peptide CP3 (peptide)
peptide: {CH2CO}-YWTLNEGFPRRGRLC
modifications: thioether N-15
notes: as for B1
[1]
  Kd: > 5000 nM

B5: cyclic peptide CP5 (peptide)
peptide: {CH2CO}-YITITSWLGTLRQC
modifications: thioether N-14
notes: as for B1
[1]
  Kd: 40 nM
[2]
  IC50 of inhibition of ADO activity (oxidation of RGS5_(2-15), LCMS): 5680 nM

B6: cyclic peptide CP1 (peptide)
peptide: {CH2CO}-YTVSTTWLGTHRQC
modifications: thioether N-14
notes: cyclic peptide selected against ADO by RaPID mRNA display; Details of synthesis are in the supplementary methods; source: synthetic peptide (solid-phase peptide synthesis)
[1]
  Kd: 35 nM
[2]
  IC50 of inhibition of ADO activity (oxidation of RGS5_(2-15), LCMS): 1720 nM

B7: cyclic peptide CP8 (peptide)
peptide: {CH2CO}-YTYRYPSILRVWARYGC
modifications: thioether N-17
notes: as for B1
[1]
  Kd: 4.7 nM
[2]
  IC50 of inhibition of ADO activity (oxidation of RGS5_(2-15), LCMS): 1730 nM

B8: cyclic peptide CP4 (peptide)
peptide: {CH2CO}-YYYVLGTILVKRYRFC
modifications: thioether N-16
notes: as for B1
[2]
  IC50 of inhibition of ADO activity (oxidation of RGS5_(2-15), LCMS): > 50000 nM

B9: CP6-L8d-Gly-Ser (peptide)
chain: {CH2CO}-YIVKTFW[Dap]([Gly-Ser])GSHRQC
modifications: thioether N-14
[3]
  Kd: 154 nM and 144 nM and 145 nM

Reference: publication PMC12098869, “An mRNA-display derived cyclic peptide scaffold reveals the substrate binding interactions of an N-terminal cysteine oxidase” (Nature Communications, 2025)
